Earlier results, collected in publication PMC7511354.

Molecular target: CYP2C9 (Homo sapiens) (UniProt P11712)
Sequence of UniProt P11712 (P11712 whole entry): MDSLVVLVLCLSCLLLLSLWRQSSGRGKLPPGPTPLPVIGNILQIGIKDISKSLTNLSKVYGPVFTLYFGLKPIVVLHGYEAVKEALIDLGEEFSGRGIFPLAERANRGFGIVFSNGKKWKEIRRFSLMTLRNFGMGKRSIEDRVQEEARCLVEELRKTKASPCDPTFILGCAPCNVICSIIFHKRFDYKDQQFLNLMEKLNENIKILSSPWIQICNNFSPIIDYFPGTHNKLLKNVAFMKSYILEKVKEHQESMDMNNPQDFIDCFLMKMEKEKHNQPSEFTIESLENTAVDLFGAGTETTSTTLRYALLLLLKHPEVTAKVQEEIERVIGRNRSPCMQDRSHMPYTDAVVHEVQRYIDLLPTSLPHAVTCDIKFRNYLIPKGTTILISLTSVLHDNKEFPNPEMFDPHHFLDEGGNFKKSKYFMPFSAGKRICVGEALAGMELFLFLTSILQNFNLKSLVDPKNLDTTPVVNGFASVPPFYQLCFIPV

Q: With cytochrome b5 (from UniProt P00167) as the substance, how does the Kd read?
A: 0.794 µM
